Data taken from a protein production outcome set (Wang et al. 2014).

Test: label from the status in PepcDB records

| Sequence | protein production |
| --- | --- |
| MPRRFRQANARLTILSGGIPYLTNTMTLPDRFQQADAVPDDLQQLEARLAEAEDILLRDSPQAEATAREVLAGATAAGCQSLALRSRTVLGRSLAHQKRNEQATELLESVVAESRSAKMPELLVHAWLGLGLAHLNERRMARGLQAYLEALKICESLNAPELSLRVLTNLASAYAKLEQYDTAQPYLTEAHDTARQLGQPFDLMITSLNLACVCQLSGGTGAALTLIEEALRHAKTVASPRYLKSVLFHFSQLLLDLDRLSEALTYCEQGLNTDSGFGTATPQCELQVTHGEILYGLGRPAEARPALEAGLRAAQDLRLNDAEGRARRCYAQLLEDQDDYQGALAQVRALAQLEHDLREQLAAVNLQLEAERLRSETLAEKRRLKEEGRTQQRLAAQLRHDALTGLPNRLALHEALGQQVAADSAPFALLCLDLDHFKTVNHTLGQPAGDALLLYIGERVQAAVGEQGQTFRRGGNEFVVLLPAVRAAPDALTIAQTLLDTINEPLLLDGQALVVTASIGLALFPEDGRDSLTLQKNADLALHAAKQEGGQAQRYRNALSQAANERLELTQALRSGIGNGELVLHYQPIVEVRSGKTVAVEALVRWQHPRLGLLSPDRFIGLAEDNGLIVPLGRWVLNTALRQLAAWREHWPELRVSVNMAPRQLQQPGSCQEIRDALRAYALPPDALELEITEQTICDEEALEPFLPLIREGLRLAIDDFGTGYSSLSRLYRLPAQILKLDRSLIQDLSADNATDGPLVSALIAFAQRFGMQVTAEGIETAEQLHLLRQ | failed |
| MGEKVSIILTSYNKPDYLQKAIESVIQQTHDLWELFIMDDHSNAETTAVIHKYLHDRRIQYHNSFVHPADRLKTARYATLINSALPFADGDYISYLTDDTVYHPERLSRMVQEFSHKPEAQAVYSKQKVVHVNERGEEISHFYRNANAVLDQAAFQVDHCSVMHRRSLLNLIHHKFGGYWDDDMKHWNHGDAIFWARLNNFTPFLPINEVLDTTYKTPDSFQNAYRFLPADLIDGSFVKGSDQNVYFFDQGVRHPVGEKWGFLYLNRTVAVPDPYLFQYRIGKILNIPNYILVKEADHPAIFYIEAGKKRRIVDQYAFQFYQFQRKDIVTIGKEEMETLPEGPPITWKRSELIKNPPGRRLFFIEREPFLFLNGVFHPISEQVTRKFFLHQKPISASFRNIQQFPIGKPFYPVYDEIIKKLNIATELEHHHHHH | not failed |
| MTQYTHIRNATGKLTIKNTTFLIDPFLAPKDTYPGFEGTFNYQQRMPMVDLPLSMDDLLSNVTAVVVTHTHLDHWDDTAINSIPKSLPIFVQNTADKELITSQGFIDVRIIFESLEFNGITLRKTGGSHGTVEMYANPVLAPLAGDAMGVIFEAADEPTVYLVGDTVWTSDVEKALLRFDPNVIIMNTGYAQILGFEDSIIMGTKDIGRMVVRKPEAKIIAVHMDTVNHTATSRKDVRKFIKGNNIESHVAVPEDGETITL | not failed |
| MHTPTAVLRPADFLAPIVAALISVLVNYGGTFVLVFQAAELAGLSAAQTTSWVWAVSIGVGVTGIALSWRYREPIITAWSTPGVAFLATVMPFTPYGEVIGAYLAAALGFVVLGLSGAFEKLVRMIPAGIAAGLLAGILLQFGINAFGGASADPLLVIALLVSYALLKRYTSRFAVVGILVIGLGLLAAQQRVDFAALHLSLAAPVFEMPRFSLHAMLGVALPLFVITLTGQYMPGMLVLRNDGFKTSANPILVATGLGSLVMAPFGAHTFNVAAITAAICTGRDAHEDPRKRYIAGLACGVFYILVGLFGVTLATLFMVLPKTFITTLAGLALLGTIGGSLASAMADARTRETALITFLATAANVTLLGVGGAFWGLVAGLAAHGLIHFRQPEPAAARPALLSPTSQDTR | failed |
| MSLIASIGELLIDLISVEEGDLKDVRLFEKHPGGAPANVAVGVSRLGVKSSLISKVGNDPFGEYLIEELSKENVDTRGIVKDEKKHTGIVFVQLKGASPSFLLYDDVAYFNMTLNDINWDIVEEAKIVNFGSVILARNPSRETVMKVIKKIKGSSLIAFDVNLRLDLWRGQEEEMIKVLEESIKLADIVKASEEEVLYLENQGVEVKGSMLTAITLGPKGFRLIKNETVVDVPSYNVNPLDTTGAGDAFMAALLVGILKLKGLDLLKLGKFANLVAALSTQKRGAWSTPRKDELLKYKEAREVLAEGHHHHHH | not failed |
| MRIVPFGAAREVTGSAHLLLAGGRRVLLDCGMFQGKEEARNHAPFGFDPKEVDAVLLTHAHLDHVGRLPKLFREGYRGPVYATRATVLLMEIVLEDALKVMDEPFFGPEDVEEALGHLRPLEYGEWLRLGALSLAFGQAGHLPGSAFVVAQGEGRTLVYSGDLGNREKDVLPDPSLPPLADLVLAEGTYGDRPHRPYRETVREFLEILEKTLSQGGKVLIPTFAVERAQEILYVLYTHGHRLPRAPIYLDSPMAGRVLSLYPRLVRYFSEEVQAHFLQGKNPFRPAGLEVVEHTEASKALNRAPGPMVVLAGSGMLAGGRILHHLKHGLSDPRNALVFVGYQPQGGLGAEIIARPPAVRILGEEVPLRASVHTLGGFSGHAGQDELLDWLQGEPRVVLVHGEEEKLLALGKLLALRGQEVSLARFGEGVPV | not failed |
| MIEVLSVITSATVQDLGRWGYQRYGVPVSGVMDEVSARIANYLVGNPDNTPLIEFTAGGISIKFHTSAVFAVTGDATLYLNDTQLEPWESYWAKRGDVLTVRLSKGMYGYIAFSGGIECRKILGSCSTYLRAKFGGLLKPGDKLKLGYSLLTGKAGKRLPEELRPRFDKTVRVILGPNIEHFTPEGMRTFLTSEYTVTPESDRMGYRLEGPRIEHSEKGADIITEPIPRGAIQVPANGKPIIMLADAQTTGGYAKIATVIRVDIPMVVQTRPGEKLRFKAVSVNEAVQELRKRERI | not failed |
| GGLTEICRKPVSPGCISSVSDWLISIGLPMYAGTLSTAGFSTLSQVPSLSHTCLQEAGITEERHIRKLLSAARLFKLPPGPEAM | not failed |
| MSRRDFTRYVRDKAWLAIPGWLFVAALTLLALRKHLSNLRQHQQLLQGNERIRDSEEQARLILDTAPLALLLVNPQTARIRHANSLAREMLGLPPRDPEQAAGSELNLPLKLQPVEQWLSEGEEVLQQEVELELEDKSRLWAIVSLRRLGHDSQPSALIALYDISGRKLLEQQLHESNQQLAEMAVTDPLTRLYNRRHADMVLRDEISRCERYGQTMAIAVFDIDHFKRFNDQYGHQAGDDVLVAVANALRDTTRNTDINARIGGEEFMVIFPYTRLRDAHKVMSRLQMALTHTTFPFVEQRITFSGGVTDWRPGDSPALMMSRADKLLYDAKQAGRNVVLSDQEEA | failed |
| MAHYKAADSKREQFRRYLEKSGVLDTLTKVLVALYEEPEKPNSALDFLKHHLGAATPENPEIELLRLELAEMKEKYEAIVEENKKLKAKLAQYEPPQEEKRAE | not failed |
| MSRVFVIGAAGKVGQRLIKKLGDGGHEVIALHRKEEQSVLIKAAGALPLLANLVEMDAAALSSAMAGSDVVVFTAGAGGAGIELTNAIDGEGLKTSVAAAELAGVRRFLLVSAFPEAARGTDTSAGFENYMRVKKHADVCLASSELDWVILRPGTLVDSAGSGQVRAGLAIPYGDIPRDDVAAFLAALVDQPEISRQIIELTEGTTPVELAIKALGTR | failed |
| MQDAFEVALPLFLIMDPVGNAAASLAILREHTPSRQRAIIRRELVFALAIVLLFHFLGDALLGLLDIEQSTLRLSGGIILFIIAMKMVFPPAQENDPEAVTRDPFIVPIAVPLIAGPSLLAAVMVYARQAQAGMMGQASVLGGVLMAWGATALIMAFTPDLARILGPRAMRAMERLMGLILILMAVQMLENGIRIFVQSL | failed |
| MIPYAFIILLVVFFSVFDFSNLNVFKKKILLFFLSFILILFVGTRFETGDDWGEYTKVFDKIPLVSDLWNDNGMFLLFRMEPGYILFNSVIKSFGGSINEVFLLSSIVVISLFFVFQKRYTLLPFLAVLLYMRYGYMQFNMMFVRQGIAISIFFYSLKYIEDKKIIKYLLINILSSLFHSSLLIVLPLYFVINRRYSNIFLCTVVFISVLLSFFDWMGAILSFFPPFIQSSLTSYTESDVWGGMTGKINIAVAEKFILLLMCLRLREKLEQKNISFNLVFNLFVLSIICYYAFFQTYVFQQRTVLIFQLSTIFIISQLFLFFSVKNRMMVLFILNLMVIYFFFRYINIGKDVYLPYRSWLI | failed |
| MKDREIFAGLSTTVPFVLRLDGRSFHRFSKDRYKKPYDKVFSDAMVKTARALVTDSGLSPSFAYTFSDEISLYVPAPVFDCRVEKLASVSAAFAASAFTLYAGASEPLAFDARVIPIEEGLFPAYLSWRQAEAWRNHMNGYAQKILQDEGVSPTNAQKQLDGMNAAALHEFAFSRGVNLALTPAWERRGICIYRDVVMRDGYNPIKDEKVSVERTIAVIDEDVPLFKSPEGTAWVLSKIRLEHHHHHH | failed |
| MISGISGILCVVLVSKGKISNYFFGLIFAYTYFYVAWGSNFLGEMNTVLYVYLPSQFIGYFMWKANMQNSDGGESVIAKALTVKGWMTLIVVTTVGTLLFVQALQAAGGSSTGLDGLTTIITVAAQILMILPLS | failed |
| MHTDVNALFAALWQDYIKMTPSAAKIHQLLGHGAPIINDHIALRTFNIAKVNLSVLAKHFTSIGYVDSGDYKFEQKKLIAKHFEHPDPKQPKVFISELLVEEFSPEVQKSIHGLIDQVDIAATTADNFIYSGRHWDVDKATYQALLAESEYAAWVAALGYRANHFTVSINDLPEFERIEDVNQALKQAGFVLNSSGGEVKGSPEVLLEQSSTMADKVVVNFTDGDVEIPSCFYEFARRYPMANGQLYTGFVAASADKIFESTNAMM | not failed |
| SSSDVVTLTVGATPSPHAKILTYINDNLAADAGIKLDIVEYTDYVQPNTALNDGDLDANFYQTVPYLENAEKQFGYNFEAGEGIHLEPLGVFSNKHKSLDELPDGGTIGIISDTANQSRALELLATQGLVSIPEGDGDVNINTVTKLKNFDFREVEGPQLVRSLDDFDYAVINGNFAQEGGKTISGDALVVESPVDNPAVNVLVWKGDSKKVDAIAKLEKLLHSDEVKQYIEKTWSDGSVIPAF | not failed |
| MKLKNILIVVDNIEESIHFYNELFGLNVISRQEGNVIMSEGLVLQDAGIWKESMQIQTIPYNNMTELYFEDNDIEGVVKKLESGRYEVRYATALTELDGGQKLVRFYDQSGNLIEVRTPWDKFVNRE | failed |
| MLIDKKTQAGVKSIIGWQHCAHFYRQNKLLGLFTKIKRPTKGQRMEEELKQQFDEMGVEPADAVLGRCAELAITYNIHDATEFVEQWMAFSLSHLQGEDPAIENLGDFERKVLQLRKDKAGYKATGQKAKSYGSPSVQDTSSLATYGVMEDDPMLDDYVSESAVDSSALHTPKAKKQSDRTANLKGAALFSPASYTPQSAKRKAGLETPSNSVAGKPGDIVDTFGHPKLLAGSSWQSQMEHTVPVTQKLLHNDAPLTIANLGYMNDLLTDRCHNLRVRFNQTGPALVDKKLGQAGAAECIWYPQDRQVLQSAGGLHAVGMIHSEDDGPLDAHSAFMAVLDDDVEDEMDPTLTLNFSRVKSASIFPGQVVLAKGFIPRGKTFMVEEIHTERKLTPATPLQIDRELQFVVASGPFTDSTDLFYEPLHDLLKYLKDHRPDVLVLTGPFLDADHKMVGELAETFDTFFEKMIGGIMESIGSHTAVLVVTSQKDAMALSVYPTPPPALRRTYPNLYMLPDPSLVDLDGFTLGVTSTDVVDHLLSHEFAVNAGERMHRAINHLFHQGSFYPLYPPADEDMAYDSQLALKYAQLKQLPNVLILPSDQRHFIRLVNDCLVINPGRVADKKGGTFARFLVAPSVPGKAANMFNSVACQVQRI | failed |
| FTCPITKEEMKKPVKNKVCGHTYEEDAIVRMIESRQKRKKKAYCPQIGCSHTDIRKSDLIQDEALRRAIENHNKKRHRHSE | not failed |
| VLIIPGGGYRRIVYEREGLDVGRWIAGQGYTAFILSYRMPSVNGYYSFADAKNALNFISYWAGMSERTFKSVGCMGFSAGGHLAGYITHLHYEEETSVRPDWMALIYPVISLDRSIAHQGCRKRLLDAGESEYSASLENSVTEYMPPVFIVHATDDKDVPVIHSLRYFNSIRDKGHHAEAHFFDKGGHGFGVSGKNGYPIEKWQSLLLEWLAEH | failed |
